# Like-named read-outs stand apart in the source and are kept apart here.
# T1: membrane hIL-36R (human, UniProt Q9HB29 20-575)
# T1 sequence: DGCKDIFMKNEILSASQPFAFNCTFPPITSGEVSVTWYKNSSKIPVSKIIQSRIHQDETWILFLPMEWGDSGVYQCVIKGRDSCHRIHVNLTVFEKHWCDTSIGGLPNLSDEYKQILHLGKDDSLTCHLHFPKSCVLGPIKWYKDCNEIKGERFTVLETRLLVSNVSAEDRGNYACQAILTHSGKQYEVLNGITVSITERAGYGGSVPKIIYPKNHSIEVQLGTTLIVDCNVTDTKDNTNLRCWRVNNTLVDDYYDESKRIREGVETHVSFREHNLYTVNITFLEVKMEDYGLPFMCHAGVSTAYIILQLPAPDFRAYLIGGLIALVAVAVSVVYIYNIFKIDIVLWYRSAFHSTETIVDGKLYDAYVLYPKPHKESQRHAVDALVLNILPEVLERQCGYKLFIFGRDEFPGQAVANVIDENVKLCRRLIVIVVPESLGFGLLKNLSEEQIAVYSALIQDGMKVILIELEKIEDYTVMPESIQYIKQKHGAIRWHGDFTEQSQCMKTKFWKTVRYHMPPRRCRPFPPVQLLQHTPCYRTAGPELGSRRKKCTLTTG
# T2: mouse IL-36R (R&D, Cat #2354-RP) (mouse, UniProt Q9ERS7 22-338, limits assumed)
# T2 construct: Bought; also called recombinant mouse IL-36R protein
# T2 sequence (looked up): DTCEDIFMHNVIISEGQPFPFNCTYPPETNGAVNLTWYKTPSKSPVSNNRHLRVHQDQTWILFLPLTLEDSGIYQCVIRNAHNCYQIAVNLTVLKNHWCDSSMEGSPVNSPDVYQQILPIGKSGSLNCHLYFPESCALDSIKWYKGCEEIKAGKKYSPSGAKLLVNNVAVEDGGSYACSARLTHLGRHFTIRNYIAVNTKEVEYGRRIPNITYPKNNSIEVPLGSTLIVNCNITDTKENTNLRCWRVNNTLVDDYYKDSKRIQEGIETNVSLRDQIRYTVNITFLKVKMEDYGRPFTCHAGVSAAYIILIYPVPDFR
# T3: Recombinant hIL-36R protein (Acrobio, Cat #IL2-H52H6) (human, UniProt Q9HB29 20-335)
# T3 construct: Bought soluble protein; also called recombinant human IL-36R protein
# T3 sequence: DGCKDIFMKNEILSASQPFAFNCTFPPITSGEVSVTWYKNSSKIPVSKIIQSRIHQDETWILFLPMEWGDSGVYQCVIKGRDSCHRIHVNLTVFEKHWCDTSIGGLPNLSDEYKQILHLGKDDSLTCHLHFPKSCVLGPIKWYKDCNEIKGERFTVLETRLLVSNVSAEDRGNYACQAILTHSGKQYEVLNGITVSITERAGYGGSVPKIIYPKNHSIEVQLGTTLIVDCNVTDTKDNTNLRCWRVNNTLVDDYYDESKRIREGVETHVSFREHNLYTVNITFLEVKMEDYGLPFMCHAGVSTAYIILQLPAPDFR
# T4: Recombinant cynomolgus IL36R protein (Acrobio, Cat #IL2-C52H5) (cynomolgus, UniProt A0A2K5WSK9 20-335)
# T4 construct: Bought; also called cyno IL-36R
# T4 sequence: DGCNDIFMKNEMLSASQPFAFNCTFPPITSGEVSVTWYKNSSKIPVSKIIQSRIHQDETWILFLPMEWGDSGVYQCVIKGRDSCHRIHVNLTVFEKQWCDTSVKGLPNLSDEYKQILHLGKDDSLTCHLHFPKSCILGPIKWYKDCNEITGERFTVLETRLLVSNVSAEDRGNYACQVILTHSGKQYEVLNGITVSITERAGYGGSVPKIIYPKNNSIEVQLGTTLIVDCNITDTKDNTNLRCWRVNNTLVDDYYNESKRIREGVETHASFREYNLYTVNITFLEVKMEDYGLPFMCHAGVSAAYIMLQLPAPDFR
# T5: Recombinant hIL1R1 protein (human, UniProt P14778 18-332, limits assumed)
# T5 sequence (looked up): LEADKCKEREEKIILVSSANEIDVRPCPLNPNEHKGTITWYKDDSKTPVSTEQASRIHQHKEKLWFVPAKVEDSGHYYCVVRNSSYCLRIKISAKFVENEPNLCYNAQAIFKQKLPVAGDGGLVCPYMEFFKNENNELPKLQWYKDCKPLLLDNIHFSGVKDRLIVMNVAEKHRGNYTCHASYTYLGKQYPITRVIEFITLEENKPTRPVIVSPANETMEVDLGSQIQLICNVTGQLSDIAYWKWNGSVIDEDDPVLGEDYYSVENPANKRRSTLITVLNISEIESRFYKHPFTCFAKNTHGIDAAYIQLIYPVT
# T6: recombinant hIL-36R-his (human, UniProt Q9HB29 20-337)
# T6 construct: Residues 1-337 (extracellular domain) are stated for the IL-36R-his used as immunogen; The range includes the signal peptide; no cleavage site is stated; also called recombinant hIL36R protein; recombinant human IL-36R-his protein; not shown: His tag
# T6 sequence: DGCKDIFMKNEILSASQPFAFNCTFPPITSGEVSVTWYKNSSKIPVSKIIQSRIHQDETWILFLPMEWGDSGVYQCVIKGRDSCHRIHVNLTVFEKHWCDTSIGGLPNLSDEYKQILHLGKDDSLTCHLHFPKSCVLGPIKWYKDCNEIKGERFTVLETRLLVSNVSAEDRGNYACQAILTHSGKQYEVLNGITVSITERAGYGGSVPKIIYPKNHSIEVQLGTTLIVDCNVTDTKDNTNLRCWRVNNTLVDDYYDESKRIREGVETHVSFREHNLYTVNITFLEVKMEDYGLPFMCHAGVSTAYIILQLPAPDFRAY
# Assays:
# membrane hIL-36R [1] = biological target: T1, membrane hIL-36R; assay: cell-based or functional assay
# [2] = biological target: T2, mouse IL-36R (R&D, Cat #2354-RP); assay: BLI, antibody on Protein A sensor, recombinant mouse IL-36R as analyte
# Source text: (§1) Antibodies was immobilized onto Protein A biosensor after balance. Cyno or mouse IL-36R was used as the analyte, followed by injecting running buffer as dissociation phase.
# [3] = biological target: T3, Recombinant hIL-36R protein (Acrobio, …); assay: BLI as in Example 2, antibody on Protein A sensor, hIL-36R analyte
# Procedure: Antibodies was immobilized onto Protein A biosensor after balance. A baseline was detected for 60 seconds. And then antibody-antigen association was detected for 180 seconds to get the Kon factor data. Followed by dissociation in kinetic buffer for 180 seconds to get the Koff factor data. The regeneration of biosensors was in buffer 10 mM glycine, pH2.0. All the kinetics data were collected at 30° C. Data were acquired with Gator Bioanalysis System.
# [4] = biological target: T4, Recombinant cynomolgus IL36R protein …; assay: BLI, antibody on Protein A sensor, recombinant cynomolgus IL36R as analyte
# Source text: as §1
# membrane hIL-36R [5] = biological target: T1, membrane hIL-36R; assay: cell-based or functional assay; remark: listed apart in the source
# membrane hIL-36R [6] = biological target: T1, membrane hIL-36R; assay: cell-based or functional assay; remark: listed apart in the source
# membrane hIL-36R [7] = biological target: T1, membrane hIL-36R; assay: cell-based or functional assay; remark: listed apart in the source
# [8] = biological target: T3, Recombinant hIL-36R protein (Acrobio, …); assay: SPR (Biacore T200, 25 C), antibody captured by Fc, hIL-36R analyte
# Procedure: To evaluate binding affinity of antibodies to hIL-36R, the binding affinity of antibodies were tested by surface plasmon resonance (SPR) technology with Biacore T200. The assay was performed at 25° C. and the running buffer was HBS-EP+. Diluted antibodies were captured on the sensor chip through Fc capture method.
# membrane hIL-36R [9] = biological target: T1, membrane hIL-36R; assay: cell-based or functional assay; remark: listed apart in the source
# [10] = biological target: T5, Recombinant hIL1R1 protein; assay: ELISA on coated recombinant hIL1R1 protein, detection with HRP anti-hIgG
# Procedure: Then the plate was blocked with PBS containing 1% BSA+1% normal goat serum+0.05% Tween20. After that, 100 ul serially diluted antibodies were added into the plate and incubated for 1 h. The specific binding to hIL1R1 of antibodies was detected with HRP linked anti hIgG antibody.
# membrane hIL-36R [11] = biological target: T1, membrane hIL-36R; assay: cell-based or functional assay; remark: listed apart in the source
# membrane hIL-36R [12] = biological target: T1, membrane hIL-36R; assay: cell-based or functional assay; remark: listed apart in the source
# membrane hIL-36R [13] = biological target: T1, membrane hIL-36R; assay: flow cytometry on HEK293 cells transfected with pcDNA3.1-hIL36R, FITC anti-hIgG, MFI (median); unit taken from the x axis
# Procedure: After 48 h, the transfected cells were subjected to FACS analysis for anti-IL-36R antibodies binding. Cells were collected and seeded into 96 well plate at a concentration of 100000 cells/50 ul/well. 50 ul serially diluted antibodies were added to the cells and incubate at 4° C. for 1 h. After that, cells were washed twice with PBS and 100 ul diluted secondary antibody (FITC labeled anti-hIgG) was added into the cells and incubated at 4° C. for 30 min. After incubation, cells were washed twice with PBS and analyzed by flow cytometry.
# recombinant hIL-36R-his = biological target: T6, recombinant hIL-36R-his; assay: ELISA on coated recombinant hIL36R protein (1 µg/ml), detection with HRP anti-hIgG; unit taken from the x axis Ab(µg/mL)
# Procedure: Recombinant hIL36R protein was coated at a concentration of 1 μg/ml 100 ul per well in ELISA plate overnight. After wash, the plate was blocked with PBS containing 1% BSA+1% normal goat serum+0.05% Tween20. After that, 100 ul serially diluted antibodies were added into the plate and incubated for 1 h. The specific binding to hIL36R of antibodies was detected by HRP linked anti-hIgG antibody.
# membrane hIL-36R [14] = biological target: T1, membrane hIL-36R; assay: cell-based or functional assay; remark: listed apart in the source
binder,measurement,setting,value
"5F7-hu-3 (antibody, V domains shown, Humanized 5F7; also called humanized 5F7) VH: QVQLVESGGGLVKPGGSLRLSCAASGFAFTDYYMNWIRQAPGKGLEWVALIRNKAAGYTIYYSDSVKGRFTISRDNAKSSLYLQMNSLRAEDTAVYYCVRDMTIYDGYYVDYALDYWGQGTLVTVSS VL: DIVMTQSPSSVSASVGDRVTITCRASQNINIWLSWYQQKPGKAPKLFIYKASNLHTGVPSRFSGSGSGTDFTLTISSLQPEDFATYYCLQSQSYPLTFGQGTKLEIK","IC50, IL-36R reporter assay: inhibition of ligand induced luminescence in Jurkat-IL36R-IL1Racp-NFkB-luc cells",membrane hIL-36R [1],0.0637 µg/mL
same,binding result,[2],no binding (tested: up to 100 nM IL-36R)
same,Kd,[3],4.55 nM
same,koff,[3],0.000194 s⁻¹
same,kon,[3],42700 M⁻¹ s⁻¹
same,binding result,[4],no binding (tested: up to 100 nM IL-36R)
"BI655130 (antibody, V domains shown, also called benchmark antibody) VH: QVQLVQSGAEVKKPGASVKVSCKASGYSFTSSWIHWVKQAPGQGLEWMGEINPGNVRTNYNENFRNKVTMTVDTSISTAYMELSRLRSDDTAVYYCTVVFYGEPYFPYWGQGTLVTVSS VL: QIVLTQSPGTLSLSPGERATMTCTASSSVSSSYFHWYQQKPGQAPRLWIYRTSRLASGVPDRFSGSGSGTDFTLTISRLEPEDAATYYCHQFHRSPLTFGAGTKLEIK","IC50, inhibition of IL-36β induced IL-6 release in primary human epithelial keratinocytes (HEK cells) [panel IL-6]",membrane hIL-36R [5],0.0229 µg/mL
same,"IC50, inhibition of IL-36β induced IL-8 release in primary human epithelial keratinocytes (HEK cells) [panel IL-8]",membrane hIL-36R [5],0.0293 µg/mL
same,"IC50, inhibition of IL-36β induced TNF-α release in primary human epithelial keratinocytes (HEK cells) [panel TNF-α]",membrane hIL-36R [5],0.0107 µg/mL
same,"IC50, IL-36R reporter assay: inhibition of ligand induced luminescence in Jurkat-IL36R-IL1Racp-NFkB-luc cells (printed BI 655130)",membrane hIL-36R [1],0.0217 µg/mL
same,"IC50, inhibition of IL-36α induced IL-8 release in primary human dermal fibroblast (HDF) cells (IL-8 ELISA, OD450)",membrane hIL-36R [6],0.00361 µg/mL
same,binding result,[2],no binding (tested: up to 100 nM IL-36R)
same,"IC50, IL-36R reporter assay: inhibition of IL-36α induced luminescence in Jurkat-IL36R-IL1Racp-NFkB-luc cells",membrane hIL-36R [7],0.057 nM
same,Kd,[8],0.935 nM
same,koff,[8],3.66e-05 s⁻¹
same,kon,[8],39200 M⁻¹ s⁻¹
same,"IC50, inhibition of IL-36α induced IL-8 release in A431 cells (IL-8 ELISA, OD450) [panel IL-36α]",membrane hIL-36R [9],0.0955 µg/mL
same,"IC50, inhibition of IL-36β induced IL-8 release in A431 cells (IL-8 ELISA, OD450) [panel IL-36β]",membrane hIL-36R [9],0.0532 µg/mL
same,"IC50, inhibition of IL-36γ induced IL-8 release in A431 cells (IL-8 ELISA, OD450) [panel IL-36γ]",membrane hIL-36R [9],0.0065 µg/mL
same,binding result,[10],no binding (tested: 1 µg/mL)
same,"IC50, IL-36R reporter assay: inhibition of ligand induced luminescence in Jurkat-IL36R-IL1Racp-NFkB-luc cells",membrane hIL-36R [11],0.0133 µg/mL
same,"IC50, inhibition of IL-36γ induced IL-6 release in primary human epithelial keratinocytes (HEK cells) [panel IL-6]",membrane hIL-36R [12],0.0138 µg/mL
same,"IC50, inhibition of IL-36γ induced IL-8 release in primary human epithelial keratinocytes (HEK cells) [panel IL-8]",membrane hIL-36R [12],0.0077 µg/mL
same,"IC50, inhibition of IL-36γ induced TNF-α release in primary human epithelial keratinocytes (HEK cells) [panel TNF-α]",membrane hIL-36R [12],0.00575 µg/mL
same,EC50,membrane hIL-36R [13],0.0875 µg/mL
same,EC50,recombinant hIL-36R-his,0.0111 µg/mL
same,"IC50, inhibition of IL-36α induced IL-6 release in primary human epithelial keratinocytes (HEK cells) [panel IL-6]",membrane hIL-36R [14],0.0982 µg/mL
same,"IC50, inhibition of IL-36α induced IL-8 release in primary human epithelial keratinocytes (HEK cells) [panel IL-8]",membrane hIL-36R [14],0.0684 µg/mL
same,"IC50, inhibition of IL-36α induced TNF-α release in primary human epithelial keratinocytes (HEK cells) [panel TNF-α]",membrane hIL-36R [14],0.027 µg/mL
